Data as given in patent US20220275059A1 (HARBOUR ANTIBODIES, published 2022).
Positions count from the first letter of the chain named.

B1: 5.5e11 (antibody, V domains shown)
VH: QVQLVQSGAEVKKPGSSVKISCKASGGTFSTHAFTWVRQAPGQGLEWIGRIIPIFDTPKYAQKFQGRVTIAADISTSTVFMELSSLRSEDTAVFYCAREGYYISGSYRDAFDIWGQGTMVTVSS
VL: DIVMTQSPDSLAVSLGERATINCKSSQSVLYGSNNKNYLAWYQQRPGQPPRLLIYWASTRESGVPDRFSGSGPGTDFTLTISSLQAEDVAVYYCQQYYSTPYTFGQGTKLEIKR
B2: 7.7h8 (antibody, V domains shown)
VH: QVQLVESGGGVVQTGRSLRLSCAASGFTFSAYAMHWVRQAPGKGLEWVTFIGYEESNKYHADSVKGRFTISRDNSKNTLYLQMNSLRAEDTAVYYCARDRGISVAATWDYYYYYGMDVWGQGTTVTVSS
VL: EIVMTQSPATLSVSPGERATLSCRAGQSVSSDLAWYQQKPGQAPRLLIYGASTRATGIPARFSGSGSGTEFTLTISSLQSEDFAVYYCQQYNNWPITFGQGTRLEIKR
B3: 7.9g1 (antibody, V domains shown)
VH: QVQLVESGGGVVQPGRSLRLSCAASGFTFSTYAMHWVRQAPGKGLEWVAVIWYDGSNKYYADSVKGRLTISRDNSKNTLFLQMNSLRAEDTAVYYCARDRGITTTDTGYYYYYYGLDIWGQGTTVTVSS
VL: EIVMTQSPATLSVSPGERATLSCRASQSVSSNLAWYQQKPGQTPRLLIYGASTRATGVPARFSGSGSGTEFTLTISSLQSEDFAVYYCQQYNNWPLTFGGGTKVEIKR
B4: 4.2c3 (antibody, V domains shown)
VH: QVQLVESGGGVVQPGRSLRLSCTASGFTFSGYGMHWVRQAPGKGLEWVAIIWYDGSNTYYADSAKGRFTISRDNSKNTLYLQMNSLRVEDTAVYYCARDRGISVAALWKYYYYHGLDVWGQGTTVTVSS
VL: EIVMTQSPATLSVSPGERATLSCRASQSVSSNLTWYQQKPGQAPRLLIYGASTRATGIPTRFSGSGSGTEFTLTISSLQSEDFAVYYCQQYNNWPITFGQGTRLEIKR
B5: 7.7f3 (antibody, V domains shown)
VH: B4 VH with A61T, N77D, V125T
VL: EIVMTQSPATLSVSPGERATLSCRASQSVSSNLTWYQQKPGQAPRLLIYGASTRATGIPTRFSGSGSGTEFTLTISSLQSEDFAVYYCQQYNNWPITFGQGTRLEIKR
B6: 4.7a6 (antibody, V domains shown)
VH: B4 VH with G33A, G42V, T58K, A64V, V88A, V104E, L107K, H114Y, L116M
VL: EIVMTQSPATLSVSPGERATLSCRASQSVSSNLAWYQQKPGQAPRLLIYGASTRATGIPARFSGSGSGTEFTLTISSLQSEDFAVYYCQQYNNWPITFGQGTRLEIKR
B7: 4.9f12 (antibody, V domains shown)
VH: B4 VH with R16M, G33A, G42V, T58K, A64V, V88A, V104E, L107K, H114Y, L116M
VL: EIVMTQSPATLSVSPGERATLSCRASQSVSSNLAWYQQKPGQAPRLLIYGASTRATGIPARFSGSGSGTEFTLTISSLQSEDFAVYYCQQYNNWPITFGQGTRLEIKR
B8: 7.9g10 (antibody, V domains shown)
VH: QVQLVQSGAEVKKPGSSVKVSCKASGGTFSSYAISWVRQAPGQGLEWMGGIIPIFGTANYAQKFQGRVTITADKSTNTAYMELSSLRSEDTAVYYCAREDITMVRGVITNYWYFDLWGRGTLVTVSS
VL: DIQMTQSPSSLSASVGDRVTITCRASQDISNYLAWYQQKPGKVPKLLIYAASTLQSGVPSRFSGSGSGTDFTLTISSLQPEDVATYYCQKSNNAPLTFGGGTKVEIKR
B9: 1.3g2 (antibody, V domains shown)
VH: QVQLVQSGAEVKKPGSSVKVSCKASGGTFSTYAISWVRQAPGQGLEWMGGIIPIFGTANYAQKFQGRVTIIADKSTNTAYMDLSSLRSEDTAVYYCAREGNLGYDVVTGYSYFVYWGQGTLVTVSS
VL: EIVLTQSPGTLSLSPGERATLSCRASQSVSSSYLAWYQQKPDQVPRLLIYGTSSRATGIPDRFSGSGSGTDFTLTISRLEPEDFAVYYCQQYGRSLTFGGGTKVEIKR
B10: 7.3a9 (antibody, V domains shown)
VH: QVQLVESGGGVVQPGRSLRLSCAASGFNFSSDGMHWVRQAPGKGLEWVAVIWYDGRNKYYADSVKGRFTISRDNTKNTLYLQMNSLRAEDTAVYYCARDRGITMGRGPYYYYYGMDVWGQGTTVTVSS
VL: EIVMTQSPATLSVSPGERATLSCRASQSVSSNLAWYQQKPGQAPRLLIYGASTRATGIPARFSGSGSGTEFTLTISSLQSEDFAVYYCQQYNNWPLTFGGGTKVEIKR
B11: 5.2b7 (antibody, V domains shown)
VH: B10 VH with N28T, Y53F, R56S, T75S, L79M, A97T, P108R
VL: EIVMTQSPATLSVSPGERATLSCRASQSVGSNLAWYQQKPGQAPRLLIYGASTRATGIPARFSGSGSGTEFTLTISSLQSEDFAVYYCQQYNNWPLTFGGGTKVEMKR
B12: 7.6c11 (antibody, V domains shown)
VH: B10 VH with N28T, R56S, N57S, K58E, A61G, T75S, P108V
VL: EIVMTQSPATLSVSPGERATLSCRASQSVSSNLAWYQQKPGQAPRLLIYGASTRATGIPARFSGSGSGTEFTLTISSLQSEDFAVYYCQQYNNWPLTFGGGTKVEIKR
B13: 1.6c2 (antibody, V domains shown)
VH: QVQLVQSGTEVKKPGSSVKVSCKASGGAFSAYAITWVRQAPGQGLEWMGGIIPIFGTAHYAQKFQGRVTITADKSTSTAFMELSSLRSEDTAVYYCAREGDIEVVLAGRGYFDYWGQGTLVTVSS
VL: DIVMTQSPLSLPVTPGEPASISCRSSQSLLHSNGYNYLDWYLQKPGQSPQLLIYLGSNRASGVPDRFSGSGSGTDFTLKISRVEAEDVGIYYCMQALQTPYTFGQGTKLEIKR
B14: 1.6e1 (antibody, V domains shown)
VH: B13 VH with T9A, T35S, H59N, K74T, F80Y, G108A, Y111F
VL: B8 VL with D28G, S91Y, N93S, L96W, G100Q
B15: 5.11h8 (antibody, V domains shown)
VH: B13 VH with T9A, T35D, F64L, F80Y, I102S, E103G, V104L, G108A, Y111F
VL: B8 VL with D28G, S91Y, N93S, L96W, G100Q
B16: 1.3h2 (antibody, V domains shown)
VH: QVQLVESGGGVVQPGRSLRLSCAASGFTFSRYGMHWVRQAPGKGLQWVAFIWYDGSNKYYADAVKVRFTISRDNSKNTLYLQMNSLRAEDTAVYYCATEGDYYGSGSYSRAEYFQEWGQGTLVTVSS
VL: B11 VL with G30S, S31I, G50D, A51T, T53A, L96F, G100P, E105D, M106I
B17: 7.2h5 (antibody, V domains shown)
VH: QVQLVQSGAEVKKPGSSVKVSCKASGGTFSSYAISWVRQAPGQGLEWMGGIIPIFGTVKNAQKFQGRVTITADKSTGTAYMELSSLRSEDTAVYYCARDHYYDSNDYYWYFDLWGRGTLVTVSS
VL: B11 VL with G30S, Q38K, A55V, M106I
B18: 1.10e9 (antibody, V domains shown)
VH: QVQLQQSGPGLVKPSQTLSLTCAISGDSVSSNSAAWNWIRQSPSRGLEWLGRTYYRSKWYNDYAVSVKSRITINPNTSKNQFSLQLNPVTPEDTAVYFCAREWFGEGYFDLWGRGTLVTVSS
VL: EIVMTQSPATLSVSPGESATLSCRASQTIYSNLAWYQRKPGQAPRLLIYRASTRATGIPARFSGSGSGTEFTLTISSLQSEDFAVYCCQQFNNWPYTFGQGTKLEIKR
B19: 2.9d7 (antibody, V domains shown)
VH: QRKLVESGGGVVQPGRSLRLSCAVSGLIFSNYGMHWVRQAPGKGLEWVAVIWYDGSNTYYTDSVKGRFTISRDNSKNTLYLQMNSLRAEDTAVYYCARDRGMTAPGPGTYYYFYGMDVWGQGTTVTVSS
VL: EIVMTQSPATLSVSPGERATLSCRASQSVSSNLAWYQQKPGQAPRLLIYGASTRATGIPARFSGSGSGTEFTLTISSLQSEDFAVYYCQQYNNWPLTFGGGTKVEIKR
B20: 7.5d3 (antibody, V domains shown)
VH: QVQLVESGGGVVQPGRSLRLSCAATGFTFSYYGMHWVRQAPGKGLEWVAVIWFDGTNIYYADSVRGRFTISRDNSKNTLYLQMNSLRAEDSAVYYCARDRRSSDWYVVFDYWGQGTLVTVSS
VL: DIQLTQSPSFLSASVGDRVTITCRASQGISSYLAWYQQKPGKAPKLLIYAASTLQSGVPSRFSGSGSGTEFTLTISSLQPEDFATYYCQQLNSYPWTFGQGTKVEIKR
B21: 7.9c10 (antibody, V domains shown)
VH: QVQLVESGGDVVQPGRSLRLSCAASGITFSNYGMHWVRQAPGKGLEWVAVIWYDGSNKYYADSVKGRFTISRDNSKNTLYLQMNSLRAEDTAVYYCARDRGMTGTTWEYYYYYGMDVWGQGTTVTVSS
VL: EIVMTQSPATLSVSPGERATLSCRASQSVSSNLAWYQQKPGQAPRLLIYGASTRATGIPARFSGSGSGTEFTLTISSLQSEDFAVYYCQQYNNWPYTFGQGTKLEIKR

Experiments:
[1] = target: MERS-S on pseudotyped VSV particles (MERS-S carrying a 16-a.a. cytoplasmic tail truncation) (MERS-CoV, UniProt K9N5Q8 18-1337); test: cell-based or functional assay
[2] = target: MERS-CoV S S1 subunit (MERS-S1) (MERS-CoV EMC isolate, UniProt K9N5Q8 19-748); test: ForteBio Octet kinetic measurement (FIG. 3A)

Row | Binder | IC50, neutralization of MERS-S pseudovirus infectivity (H2L2) [1] [ng/mL] | Kd [2] [nM]
1 | B1 | ~1.7 | ~0.3
2 | B2 | – | ~0.54
3 | B3 | – | ~0.21
4 | B4 | – | ~0.12
5 | B5 | – | ~0.12
6 | B6 | – | ~0.13
7 | B7 | – | ~0.13
8 | B8 | – | ~0.2
9 | B9 | – | ~1.1
10 | B10 | – | ~0.43
11 | B11 | ~0.81 | ~0.36
12 | B12 | – | ~0.4
13 | B13 | – | ~0.86
14 | B14 | – | ~0.11
15 | B15 | – | ~0.68
16 | B16 | – | ~1.9
17 | B17 | – | ~0.36
18 | B18 | – | ~0.44
19 | B19 | – | ~0.35
20 | B20 | – | ~6
21 | B21 | – | ~0.11
